From patent US20200282035A1 (MILTENYI BIOTEC B V, published 2020) come the findings set out here.

For test [1], the target named is T1, CD73 (human, UniProt P21589 27-549).
T1 construct: whole, on cells
T1 sequence (looked up): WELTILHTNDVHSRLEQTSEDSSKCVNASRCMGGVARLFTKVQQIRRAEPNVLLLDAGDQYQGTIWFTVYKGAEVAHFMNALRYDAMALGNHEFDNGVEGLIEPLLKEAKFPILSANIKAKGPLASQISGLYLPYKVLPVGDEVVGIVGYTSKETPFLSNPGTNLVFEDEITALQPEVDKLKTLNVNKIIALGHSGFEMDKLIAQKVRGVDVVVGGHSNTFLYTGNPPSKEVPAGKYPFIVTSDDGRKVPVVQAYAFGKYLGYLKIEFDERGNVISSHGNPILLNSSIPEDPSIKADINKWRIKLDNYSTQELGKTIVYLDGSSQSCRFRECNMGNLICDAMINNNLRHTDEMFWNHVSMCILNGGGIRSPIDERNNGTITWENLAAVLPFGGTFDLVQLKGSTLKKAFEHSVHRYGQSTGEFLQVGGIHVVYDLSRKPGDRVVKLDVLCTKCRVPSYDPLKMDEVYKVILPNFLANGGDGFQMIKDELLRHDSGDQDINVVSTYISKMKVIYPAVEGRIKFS
Briefly: antibody used for staining of human pancreatic cancer cells (flow cytometry, immunohistochemistry; Example 1); told in words only.

The target in test [2] is T2, CD318 (human, UniProt Q9H5V8 30-836).
T2 construct: whole, on cells
T2 sequence (looked up): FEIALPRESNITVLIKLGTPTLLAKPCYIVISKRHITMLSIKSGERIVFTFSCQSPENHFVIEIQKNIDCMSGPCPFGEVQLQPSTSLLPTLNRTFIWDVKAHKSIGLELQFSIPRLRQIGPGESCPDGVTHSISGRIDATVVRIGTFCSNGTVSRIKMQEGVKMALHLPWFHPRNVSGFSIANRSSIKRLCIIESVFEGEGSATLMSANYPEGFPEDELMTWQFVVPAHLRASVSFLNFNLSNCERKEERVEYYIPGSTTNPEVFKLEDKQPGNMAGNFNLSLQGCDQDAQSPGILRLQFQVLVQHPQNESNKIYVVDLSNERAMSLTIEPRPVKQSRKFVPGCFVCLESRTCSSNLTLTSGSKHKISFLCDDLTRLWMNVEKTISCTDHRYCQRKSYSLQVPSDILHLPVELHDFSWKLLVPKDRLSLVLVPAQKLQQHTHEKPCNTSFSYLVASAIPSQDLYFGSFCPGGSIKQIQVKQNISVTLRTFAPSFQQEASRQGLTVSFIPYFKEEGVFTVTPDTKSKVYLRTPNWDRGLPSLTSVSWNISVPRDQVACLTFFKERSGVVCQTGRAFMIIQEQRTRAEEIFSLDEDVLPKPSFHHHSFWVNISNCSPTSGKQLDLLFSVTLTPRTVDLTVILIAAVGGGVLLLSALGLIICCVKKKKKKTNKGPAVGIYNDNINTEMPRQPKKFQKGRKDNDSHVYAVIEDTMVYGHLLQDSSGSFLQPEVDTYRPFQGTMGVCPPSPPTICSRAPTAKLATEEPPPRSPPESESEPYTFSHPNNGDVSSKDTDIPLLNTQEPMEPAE
Briefly: scFv as binding domain of a CAR on T cells; told in words only, no direct binding assay.

For test [3], the target named is T3, CD66c (human, UniProt P40199 35-320).
T3 construct: whole, on cells
T3 sequence (looked up): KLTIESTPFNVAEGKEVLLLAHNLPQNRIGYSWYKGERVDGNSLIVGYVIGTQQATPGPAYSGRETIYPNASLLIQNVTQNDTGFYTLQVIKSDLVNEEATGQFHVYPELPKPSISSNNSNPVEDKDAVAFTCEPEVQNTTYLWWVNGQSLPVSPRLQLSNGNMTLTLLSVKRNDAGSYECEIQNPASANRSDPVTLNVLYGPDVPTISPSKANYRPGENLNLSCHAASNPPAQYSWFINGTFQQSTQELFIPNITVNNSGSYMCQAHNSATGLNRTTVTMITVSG
Put plainly: antibody used for staining of human pancreatic cancer cells (flow cytometry, immunohistochemistry; Example 1); told in words only.

For test [4], the target named is T1, CD73. Put plainly: scFv as binding domain of a CAR on T cells; told in words only, no direct binding assay.
Test [5] concerns the target T3, CD66c. The test is described as above.
Test [6] concerns the target T4, TSPAN8 (human, UniProt P19075 1-237).
T4 construct: whole, on cells
T4 sequence (looked up): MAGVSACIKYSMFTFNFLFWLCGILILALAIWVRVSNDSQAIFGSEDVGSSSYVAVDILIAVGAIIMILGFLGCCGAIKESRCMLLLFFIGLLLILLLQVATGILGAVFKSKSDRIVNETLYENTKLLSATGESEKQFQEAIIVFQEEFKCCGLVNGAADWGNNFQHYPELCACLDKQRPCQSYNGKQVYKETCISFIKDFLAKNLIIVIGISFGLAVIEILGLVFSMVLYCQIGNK
The description is as above.

The target in test [7] is T5, CD142 (human, UniProt P13726 33-295).
T5 construct: whole, on cells
The description is as above.

Test [8] concerns the target T5, CD142. Briefly: antibody used for staining of human pancreatic cancer cells (flow cytometry, immunohistochemistry; Example 1); told in words only.

B1: CD73 specific antibody (antibody, V domains shown)
VH: EVQLQQSGAELVKPGASVKLSCTASGFNIKDTYIHWVKQRPEQGLEWIGRIDPATGNTEYDPKFQGKATITADTSSNTAYLHLSSLTSEDTAVYYCARGYYGSSYPPWFAYWGQGTLVTVSA
VL: DIVMTQSHKFMSTSVGDRVSITCKASQDVGSAVAWYQQKPGQSPKLLIYWASTRHTGVPDRFTGSGSGTDFTLTISNVQSEDLADYFCQQYSSYPLTFGAGTKLELK
notes: also called CD73 VH
Take B1: in test [1], the binding result was “binds”.

B2: CD318 specific CAR sequence VL-linker-VH (scFv)
scFv: DIVMTQSHKFMSTSVGDRVSITCKASQDVSTAVAWYQQKSGQSPKLLIYWASTRHTGVPDRFTGSGSGTDYTLTISSVQAEDLALYYCQQHYSTPYTFGGGTKLEIKGGGGSGGGGSGGGGSEVQLQQSGAELVRPGALVKLSCKASGFNIKDYYIHWVKQRPEQGLEWIGWIDPENGHTIYDPKFQGKASITADTSSNTAYLQLSSLTSEDTAVYYCARLTGTTYAMDYWGQGTSVTVSS
notes: not shown: hinge, transmembrane and signalling domains of the CAR
As for B2, in test [2], the binding result is on record as “binds”.

B3: CD66c specific antibody (antibody, V domains shown)
VH: QVTLKESGPGILKPSQTLSLTCSFSGFSLSTSGMGVGWIRQPSGKSLEWLAHIWWNDERYYNPSLKNQLTISKDTSRNQVFLKITSVDTADTATYYCARSPRGYFDYWGHGTTLTVSS
VL: DIVMTQSQKFMSTSVGDRVSVTCKASQNVVTNVAWYQQTPGQSPKALIYSASYRYSGVPDRFSGSGSGTDFTLTISNVQSGDLAEYFCQQYNSYPLTFGAGTKLELK
notes: also called CD66c VH
With B3, in test [3], the binding result is “binds”.

B4: CD73 specific CAR sequence VH-linker-VL (scFv)
scFv: EVQLQQSGAELVKPGASVKLSCTASGFNIKDTYIHWVKQRPEQGLEWIGRIDPATGNTEYDPKFQGKATITADTSSNTAYLHLSSLTSEDTAVYYCARGYYGSSYPPWFAYWGQGTLVTVSAGGGGSGGGGSGGGGSDIVMTQSHKFMSTSVGDRVSITCKASQDVGSAVAWYQQKPGQSPKLLIYWASTRHTGVPDRFTGSGSGTDFTLTISNVQSEDLADYFCQQYSSYPLTFGAGTKLELK
notes: as for B2
Take B4: in test [4], the binding result is recorded as “binds”.

B5: CD66c specific CAR sequence VH-linker-VL (scFv)
scFv: QVTLKESGPGILKPSQTLSLTCSFSGFSLSTSGMGVGWIRQPSGKSLEWLAHIWWNDERYYNPSLKNQLTISKDTSRNQVFLKITSVDTADTATYYCARSPRGYFDYWGHGTTLTVSSGGGGSGGGGSGGGGSDIVMTQSQKFMSTSVGDRVSVTCKASQNVVTNVAWYQQTPGQSPKALIYSASYRYSGVPDRFSGSGSGTDFTLTISNVQSGDLAEYFCQQYNSYPLTFGAGTKLELK
notes: as for B2
B5: the binding result in test [5] was “binds”.

B6: TSPAN8 specific CAR sequence VH-linker-VL (scFv)
scFv: EVKLLESGGGLVQPGGSMRLSCAASGFTFTDFYMNWIRQPAGKAPEWLGFIRNKASGYTTEYNPSVKGRFTISRDNTQNMLYLQMNTLRAEDTATYYCARAHSYYGYDYFDYWGQGVMVTVSSGGGGSGGGGSGGGGSDIQMTQSPASLSASLEEIVTITCQASQDIGNWLSWYQQKPGKSPQLLIYGATSLADGVPSRFSGSRSGTQYSLKISRLQVEDIRIYYCLQAYSAPWTFGGGTKLELK
notes: as for B2
In the case of B6, the binding result in test [6] is recorded as “binds”.

B7: TSPAN8 specific CAR sequence VL-linker-VH (scFv)
scFv: DIQMTQSPASLSASLEEIVTITCQASQDIGNWLSWYQQKPGKSPQLLIYGATSLADGVPSRFSGSRSGTQYSLKISRLQVEDIRIYYCLQAYSAPWTFGGGTKLELKGGGGSGGGGSGGGGSEVKLLESGGGLVQPGGSMRLSCAASGFTFTDFYMNWIRQPAGKAPEWLGFIRNKASGYTTEYNPSVKGRFTISRDNTQNMLYLQMNTLRAEDTATYYCARAHSYYGYDYFDYWGQGVMVTVSS
notes: as for B2
On to B7, for which the binding result in test [6] is listed as “binds”.

B8: CD318 specific CAR sequence VH-linker-VL (scFv)
scFv: EVQLQQSGAELVRPGALVKLSCKASGFNIKDYYIHWVKQRPEQGLEWIGWIDPENGHTIYDPKFQGKASITADTSSNTAYLQLSSLTSEDTAVYYCARLTGTTYAMDYWGQGTSVTVSSGGGGSGGGGSGGGGSDIVMTQSHKFMSTSVGDRVSITCKASQDVSTAVAWYQQKSGQSPKLLIYWASTRHTGVPDRFTGSGSGTDYTLTISSVQAEDLALYYCQQHYSTPYTFGGGTKLEIK
notes: as for B2
With B8, the binding result in test [2] was “binds”.

B9: CD66c specific CAR sequence VL-linker-VH (scFv)
scFv: DIVMTQSQKFMSTSVGDRVSVTCKASQNVVTNVAWYQQTPGQSPKALIYSASYRYSGVPDRFSGSGSGTDFTLTISNVQSGDLAEYFCQQYNSYPLTFGAGTKLELKGGGGSGGGGSGGGGSQVTLKESGPGILKPSQTLSLTCSFSGFSLSTSGMGVGWIRQPSGKSLEWLAHIWWNDERYYNPSLKNQLTISKDTSRNQVFLKITSVDTADTATYYCARSPRGYFDYWGHGTTLTVSS
notes: as for B2
Regarding B9, in test [5], the binding result is listed as “binds”.

B10: CD73 specific CAR sequence VL-linker-VH (scFv)
scFv: DIVMTQSHKFMSTSVGDRVSITCKASQDVGSAVAWYQQKPGQSPKLLIYWASTRHTGVPDRFTGSGSGTDFTLTISNVQSEDLADYFCQQYSSYPLTFGAGTKLELKGGGGSGGGGSGGGGSEVQLQQSGAELVKPGASVKLSCTASGFNIKDTYIHWVKQRPEQGLEWIGRIDPATGNTEYDPKFQGKATITADTSSNTAYLHLSSLTSEDTAVYYCARGYYGSSYPPWFAYWGQGTLVTVSA
notes: as for B2
Take B10: the binding result in test [4] was “binds”.

B11: CD142 specific CAR sequence VL-linker-VH (scFv)
scFv: QIVLTQSPALMSASPGEKVTMTCSASSSVTYMYWYQQKPRSSPKPWIYLTSNLASGVPARFSGSGSGTSYSLTISSVEAEDAATYYCQQWSSNPLTFGAGTKLELKGGGGSGGGGSGGGGSQVQLKQSGPGLVQPSQSLSITCTVSGFSLSNYGVHWVRQSPGKGLEWLGVIWSGGSTDYNVAFISRLIITKDNSKSQVFLKMNSLQADDTAIYFCARTTGSVFNAMDHWGQGTSVTVSS
notes: as for B2
With B11, in test [7], the binding result is on record as “binds”.

B12: CD142 specific antibody (antibody, V domains shown)
VH: QVQLKQSGPGLVQPSQSLSITCTVSGFSLSNYGVHWVRQSPGKGLEWLGVIWSGGSTDYNVAFISRLIITKDNSKSQVFLKMNSLQADDTAIYFCARTTGSVFNAMDHWGQGTSVTVSS
VL: QIVLTQSPALMSASPGEKVTMTCSASSSVTYMYWYQQKPRSSPKPWIYLTSNLASGVPARFSGSGSGTSYSLTISSVEAEDAATYYCQQWSSNPLTFGAGTKLELK
notes: also called CD142 VH
Turning to B12, the binding result in test [8] was “binds”.

B13: CD142 specific CAR sequence VH-linker-VL (scFv)
scFv: QVQLKQSGPGLVQPSQSLSITCTVSGFSLSNYGVHWVRQSPGKGLEWLGVIWSGGSTDYNVAFISRLIITKDNSKSQVFLKMNSLQADDTAIYFCARTTGSVFNAMDHWGQGTSVTVSSGGGGSGGGGSGGGGSQIVLTQSPALMSASPGEKVTMTCSASSSVTYMYWYQQKPRSSPKPWIYLTSNLASGVPARFSGSGSGTSYSLTISSVEAEDAATYYCQQWSSNPLTFGAGTKLELK
notes: as for B2
In the case of B13, the binding result in test [7] was “binds”.
